T1: PDZRN3_1, Q9UPQ7
T1 sequence (Q9UPQ7 244-349, limits assumed, looked up): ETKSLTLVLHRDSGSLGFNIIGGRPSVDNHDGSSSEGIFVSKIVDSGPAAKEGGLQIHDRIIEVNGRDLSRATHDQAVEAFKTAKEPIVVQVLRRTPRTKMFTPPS

T2: MPP6, Q9NZW5
T2 sequence (Q9NZW5 125-219, limits assumed, looked up): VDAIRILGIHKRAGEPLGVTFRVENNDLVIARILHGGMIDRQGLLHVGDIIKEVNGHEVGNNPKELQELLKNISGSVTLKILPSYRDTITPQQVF

T3: NHERF3_1, Q5T2W1
T3 sequence (Q5T2W1 4-100, limits assumed, looked up): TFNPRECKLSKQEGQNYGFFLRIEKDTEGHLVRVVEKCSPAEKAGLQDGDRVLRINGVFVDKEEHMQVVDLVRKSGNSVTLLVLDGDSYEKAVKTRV

T4: LIN7B, Q9HAP6
T4 sequence (Q9HAP6 88-185, limits assumed, looked up): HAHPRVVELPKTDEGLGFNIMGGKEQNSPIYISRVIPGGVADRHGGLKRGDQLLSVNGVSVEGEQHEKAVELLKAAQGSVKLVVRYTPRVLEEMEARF

T5: MPP2, Q14168
T5 sequence (Q14168 180-250, limits assumed, looked up): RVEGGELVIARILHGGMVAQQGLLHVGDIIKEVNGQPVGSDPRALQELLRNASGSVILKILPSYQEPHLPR

T6: TX1BP3, O14907
T6 sequence (O14907 10-122, limits assumed, looked up): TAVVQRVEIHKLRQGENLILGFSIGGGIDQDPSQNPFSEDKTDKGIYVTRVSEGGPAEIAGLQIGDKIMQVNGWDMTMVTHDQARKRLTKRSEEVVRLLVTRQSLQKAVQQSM

T7: SNTB1, Q13884
T7 sequence (Q13884 107-205, limits assumed, looked up): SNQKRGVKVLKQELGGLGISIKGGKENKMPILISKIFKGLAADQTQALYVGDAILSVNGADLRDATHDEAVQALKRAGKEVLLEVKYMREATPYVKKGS

T8: LRRC7, Q96NW7
T8 sequence (Q96NW7 1440-1537, limits assumed, looked up): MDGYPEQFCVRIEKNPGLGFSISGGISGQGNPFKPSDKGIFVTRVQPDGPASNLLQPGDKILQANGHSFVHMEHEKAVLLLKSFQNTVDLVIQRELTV

T9: NHERF3_4, Q5T2W1
T9 sequence (Q5T2W1 373-468, limits assumed, looked up): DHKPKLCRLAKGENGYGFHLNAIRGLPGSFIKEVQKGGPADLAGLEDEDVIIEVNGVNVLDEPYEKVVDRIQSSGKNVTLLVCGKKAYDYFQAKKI

T10: HTRA4, P83105
T10 sequence (P83105 378-476, limits assumed, looked up): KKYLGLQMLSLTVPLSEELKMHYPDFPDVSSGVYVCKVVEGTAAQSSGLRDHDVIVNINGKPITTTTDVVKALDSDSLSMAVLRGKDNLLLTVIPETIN

T11: DLG3_1, Q92796
T11 sequence (Q92796 125-227, limits assumed, looked up): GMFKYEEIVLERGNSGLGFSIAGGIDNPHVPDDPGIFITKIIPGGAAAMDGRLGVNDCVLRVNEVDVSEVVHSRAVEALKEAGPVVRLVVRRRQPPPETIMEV


Key:
Assay in all cases: holdup assay
Design in all cases: key: below the threshold = too weak to quantify, mostly under pKd 3.1 to 4
Details in all cases: plain residues with an end cap or a label only (N-terminal biotin on a linker: ahx)
PDZRN3_1, Q9UPQ7 = biological target: T1, PDZRN3_1, Q9UPQ7
MPP6, Q9NZW5 = biological target: T2, MPP6, Q9NZW5
SCRIB_2, Q14160 = biological target: SCRIB_2, Q14160
Sequence of SCRIB_2, Q14160 (Q14160 857-960): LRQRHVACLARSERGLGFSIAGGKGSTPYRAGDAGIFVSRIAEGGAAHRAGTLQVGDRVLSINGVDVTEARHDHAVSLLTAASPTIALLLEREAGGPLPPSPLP

MAST2, Q6P0Q8 = biological target: MAST2, Q6P0Q8
Sequence of MAST2, Q6P0Q8 (Q6P0Q8 1099-1202): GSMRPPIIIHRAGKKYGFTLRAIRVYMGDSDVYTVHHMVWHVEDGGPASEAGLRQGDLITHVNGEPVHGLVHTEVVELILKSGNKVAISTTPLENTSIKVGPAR

LDB3, O75112 = biological target: LDB3, O75112
Sequence of LDB3, O75112 (O75112 1-94): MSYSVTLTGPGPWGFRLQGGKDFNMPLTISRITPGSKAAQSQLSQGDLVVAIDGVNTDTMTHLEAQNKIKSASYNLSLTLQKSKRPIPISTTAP

NHERF3_1, Q5T2W1 = biological target: T3, NHERF3_1, Q5T2W1
LIN7B, Q9HAP6 = biological target: T4, LIN7B, Q9HAP6
FRMPD2_1, Q68DX3 = biological target: FRMPD2_1, Q68DX3
Sequence of FRMPD2_1, Q68DX3 (Q68DX3 770-861): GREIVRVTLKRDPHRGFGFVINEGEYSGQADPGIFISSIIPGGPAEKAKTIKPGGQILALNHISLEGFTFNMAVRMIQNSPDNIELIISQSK

MPP2, Q14168 = biological target: T5, MPP2, Q14168
TX1BP3, O14907 = biological target: T6, TX1BP3, O14907
ARHGEF12, Q9NZN5-2 = biological target: ARHGEF12, Q9NZN5-2
Sequence of ARHGEF12, Q9NZN5-2 (Q9NZN5 other isoform, or with tags, fused parts or gaps): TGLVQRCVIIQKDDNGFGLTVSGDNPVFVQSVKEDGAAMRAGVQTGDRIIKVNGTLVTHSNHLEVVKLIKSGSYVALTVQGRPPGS

SNTB1, Q13884 = biological target: T7, SNTB1, Q13884
GRIP2_3, Q9C0E4 = biological target: GRIP2_3, Q9C0E4
Sequence of GRIP2_3, Q9C0E4 (Q9C0E4 238-339): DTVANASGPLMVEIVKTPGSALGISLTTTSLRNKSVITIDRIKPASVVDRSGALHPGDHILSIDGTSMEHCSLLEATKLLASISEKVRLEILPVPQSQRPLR

GRIP2_6, Q9C0E4 = biological target: GRIP2_6, Q9C0E4
Sequence of GRIP2_6, Q9C0E4 (Q9C0E4 648-740): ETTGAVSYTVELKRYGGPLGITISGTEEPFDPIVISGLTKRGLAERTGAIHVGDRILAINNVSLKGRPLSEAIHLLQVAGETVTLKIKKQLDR

TJP1_2, Q07157 = biological target: TJP1_2, Q07157
Sequence of TJP1_2, Q07157 (Q07157 181-274): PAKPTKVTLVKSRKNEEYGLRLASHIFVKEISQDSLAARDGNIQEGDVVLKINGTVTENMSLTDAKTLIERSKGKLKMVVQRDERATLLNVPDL

LRRC7, Q96NW7 = biological target: T8, LRRC7, Q96NW7
NHERF3_4, Q5T2W1 = biological target: T9, NHERF3_4, Q5T2W1
LNX1_3, Q8TBB1 = biological target: LNX1_3, Q8TBB1
Sequence of LNX1_3, Q8TBB1 (Q8TBB1 500-596): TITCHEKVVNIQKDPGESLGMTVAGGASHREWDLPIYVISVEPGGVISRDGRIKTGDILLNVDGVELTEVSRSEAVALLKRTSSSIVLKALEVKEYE

Inadl_1, Q8NI35 = biological target: Inadl_1, Q8NI35
Sequence of Inadl_1, Q8NI35 (Q8NI35 113-229): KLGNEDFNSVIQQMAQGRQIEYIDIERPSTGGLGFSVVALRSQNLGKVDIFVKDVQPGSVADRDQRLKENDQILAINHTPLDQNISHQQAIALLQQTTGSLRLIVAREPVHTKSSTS

GORASP2, Q9H8Y8 = biological target: GORASP2, Q9H8Y8
DLG2_2, Q15700 = biological target: DLG2_2, Q15700
HTRA4, P83105 = biological target: T10, HTRA4, P83105
PDLIM1, O00151 = biological target: PDLIM1, O00151
Sequence of PDLIM1, O00151 (O00151 1-87): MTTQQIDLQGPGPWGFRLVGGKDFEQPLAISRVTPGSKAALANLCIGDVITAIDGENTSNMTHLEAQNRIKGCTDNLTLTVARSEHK

DLG2_3, Q15700 = biological target: DLG2_3, Q15700
GRIP2_5, Q9C0E4 = biological target: GRIP2_5, Q9C0E4
Sequence of GRIP2_5, Q9C0E4 (Q9C0E4 544-642): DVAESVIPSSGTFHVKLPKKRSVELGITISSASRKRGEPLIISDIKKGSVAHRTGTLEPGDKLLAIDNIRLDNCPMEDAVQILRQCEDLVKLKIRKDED

DLG3_1, Q92796 = biological target: T11, DLG3_1, Q92796

| Binder | pKd (PDZRN3_1, Q9UPQ7) | pKd (MPP6, Q9NZW5) | pKd (SCRIB_2, Q14160) | pKd (MAST2, Q6P0Q8) | pKd (LDB3, O75112) | pKd (NHERF3_1, Q5T2W1) | pKd (LIN7B, Q9HAP6) | pKd (FRMPD2_1, Q68DX3) | pKd (MPP2, Q14168) | pKd (TX1BP3, O14907) | pKd (ARHGEF12, Q9NZN5-2) | pKd (SNTB1, Q13884) | pKd (GRIP2_3, Q9C0E4) | pKd (GRIP2_6, Q9C0E4) | pKd (TJP1_2, Q07157) | pKd (LRRC7, Q96NW7) | pKd (NHERF3_4, Q5T2W1) | pKd (LNX1_3, Q8TBB1) | pKd (Inadl_1, Q8NI35) | pKd (GORASP2, Q9H8Y8) | further results |
| --- | --- | --- | --- | --- | --- | --- | --- | --- | --- | --- | --- | --- | --- | --- | --- | --- | --- | --- | --- | --- | --- |
| HNAFLSVTTV [PDZRN4, Q6ZMN7] | 3.56 | 3.5 | 3.71 | below the threshold | 3.56 | below the threshold | below the threshold | below the threshold | below the threshold | below the threshold | below the threshold | 3.54 | below the threshold | 3.56 | below the threshold | 3.5 | 3.61 | below the threshold | below the threshold | 3.55 | pKd (DLG2_2, Q15700): below the threshold; pKd (HTRA4, P83105): below the threshold; pKd (PDLIM1, O00151): below the threshold; pKd (DLG2_3, Q15700): 3.53; pKd (GRIP2_5, Q9C0E4): below the threshold; pKd (DLG3_1, Q92796): 3.56 |
| RRRKRKRTYL [HPV49-L2, P36762] | 3.51 | below the threshold | below the threshold | 4.22 | below the threshold | 4.86 | below the threshold | 3.78 | 3.74 | 3.48 | 4.68 | 3.58 | below the threshold | below the threshold | 3.49 | below the threshold | 4 | below the threshold | below the threshold | 4.81 | pKd (DLG2_2, Q15700): 4.58; pKd (HTRA4, P83105): 3.66; pKd (PDLIM1, O00151): 3.52; pKd (DLG2_3, Q15700): 3.54; pKd (GRIP2_5, Q9C0E4): below the threshold; pKd (DLG3_1, Q92796): below the threshold |
| NRKREIFSNF [NHERF2, Q15599] | below the threshold | below the threshold | below the threshold | 3.89 | below the threshold | below the threshold | below the threshold | below the threshold | below the threshold | below the threshold | below the threshold | below the threshold | below the threshold | below the threshold | below the threshold | below the threshold | below the threshold | below the threshold | below the threshold | below the threshold | pKd (DLG2_2, Q15700): below the threshold; pKd (HTRA4, P83105): below the threshold; pKd (PDLIM1, O00151): below the threshold; pKd (DLG2_3, Q15700): below the threshold; pKd (GRIP2_5, Q9C0E4): below the threshold; pKd (DLG3_1, Q92796): below the threshold |

Source: article PMC9482650, “Quantitative fragmentomics allow affinity mapping of interactomes” (Nature Communications, 2022)
